# Measurements taken from IntAct's records for PubMed 28506294.
# B1: SOSS complex subunit B1 (Homo sapiens), Q9BQ15 (parent)
# chain: MTTETFVKDIKPGLKNLNLIFIVLETGRVTKTKDGHEVRTCKVADKTGSINISVWDDVGNLIQPGDIIRLTKGYASVFKGCLTLYTGRGGDLQKIGEFCMVYSEVPNFSEPNPEYSTQQAPNKAVQNDSNPSASQPTTGPSAASPASENQNGNGLSAPPGPGGGPHPPHTPSHPPSTRITRSQPNHTPAGPPGPSSNPVSNGKETRRSSKR
# Variants of: B1
# Details: with int3_human INTS3, Q68E01
# Sequence of int3_human INTS3, Q68E01 (Q68E01 whole entry): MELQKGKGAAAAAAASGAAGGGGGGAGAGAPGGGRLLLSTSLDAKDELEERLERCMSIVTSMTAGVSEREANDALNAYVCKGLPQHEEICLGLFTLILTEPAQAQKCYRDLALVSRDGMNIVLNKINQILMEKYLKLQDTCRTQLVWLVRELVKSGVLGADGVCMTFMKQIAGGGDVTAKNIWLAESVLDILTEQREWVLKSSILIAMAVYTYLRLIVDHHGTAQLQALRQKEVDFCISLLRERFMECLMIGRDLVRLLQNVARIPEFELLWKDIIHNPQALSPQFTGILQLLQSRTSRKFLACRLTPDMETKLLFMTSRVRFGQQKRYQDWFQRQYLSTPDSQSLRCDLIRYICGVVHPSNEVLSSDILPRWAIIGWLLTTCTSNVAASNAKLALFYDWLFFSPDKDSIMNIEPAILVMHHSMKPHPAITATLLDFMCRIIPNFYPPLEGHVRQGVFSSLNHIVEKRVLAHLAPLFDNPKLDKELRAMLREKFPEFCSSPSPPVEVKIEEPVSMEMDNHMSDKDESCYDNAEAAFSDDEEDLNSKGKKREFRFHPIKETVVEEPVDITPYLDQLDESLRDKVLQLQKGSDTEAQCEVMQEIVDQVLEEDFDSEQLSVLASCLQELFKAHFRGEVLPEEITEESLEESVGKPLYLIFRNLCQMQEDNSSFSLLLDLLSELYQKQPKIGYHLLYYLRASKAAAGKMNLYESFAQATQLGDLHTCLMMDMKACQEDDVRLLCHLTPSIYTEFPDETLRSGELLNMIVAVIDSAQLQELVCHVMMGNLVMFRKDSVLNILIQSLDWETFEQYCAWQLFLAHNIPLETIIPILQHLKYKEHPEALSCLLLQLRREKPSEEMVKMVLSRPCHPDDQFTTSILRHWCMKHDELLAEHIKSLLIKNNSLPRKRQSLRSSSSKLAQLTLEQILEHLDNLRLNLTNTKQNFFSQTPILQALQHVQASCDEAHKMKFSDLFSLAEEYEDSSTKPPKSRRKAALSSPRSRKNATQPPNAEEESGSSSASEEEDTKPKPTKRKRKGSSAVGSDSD
row,effect of a mutation on the interaction,Variant
1,disrupting interaction strength,F98A
